Target: GP1 receptor-binding domain of Lujo virus (LUJVGP1), residues 74-199 (Lujo virus (LUJV), UniProt C5ILC1 74-199)
Test: crystal structure

B1: first CUB domain of neuropilin-2 (NRP2), binding site fragment (domain or fragment)
chain: PCGGRLNSKDAGYITSPGYPQDYPSHQNCEWIVYAPEPNQKIVLNFNPHFEIEKHDCKYDFIEIRDGDSESADLLGKHCGNIAPPTIISSGSMLYIKFTSDYARQGAGFSLRYEIFKTGS
B1: binds.

Reference: publication doi:10.1101/329482 (bioRxiv, 2018)
